Measurements: the nanobody polyreactivity screen of Harvey et al. (2022)

Assay: yeast display, Sf9 membrane polyspecificity reagent, FACS + sequencing; frameworks hold sequencing errors
Summary of the method: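 Galactose induction of a Saccharomyces cerevisiae BJ5465 synthetic nanobody display library ran 36–48 hours. The cells were then stained for 1 hour at 4 °C with 10% biotinylated, detergent-solubilized Sf9 membrane reagent, pulled down on streptavidin microbeads and FACS-sorted into low and high (top ~1%) gates on expression and reagent-binding fluorescence. Labels for polyreactivity follow the gate of origin.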

| Sequence | polyreactivity (PSR sort gate) |
| --- | --- |
| QVQLVESGGGLVQAGGSLRLSCAASGITFGRYAMGWYRQAPGKERELVAAISSRTGRTYYADSVKGRFTISRDNAKNTVYLQMNSLKPEDTAVYYCARDSKLSASYDRDDSWGQGTQVTVSS | high polyreactivity |
| QVQLVESGGGLVQAGGSLRLSCAASGYGMGWYRQAPGKEREFVAAITSGGSTNYAVSVKGRFTISRDNAKNTVYLHMNSLKPEDSAVYYCAAAYSLYGHRYDYWGQGTQVTVSS | high polyreactivity |
| QVQLVESGGGLFQAGGSLRISCAASGSTFLVNAMGWYRQAPGKEREFVAAITWTGGSTYYADSVKGRFTISRDNAKNSVYLQMNRLKPEDTAVYYCNTDWTYYGDQYRRGGYWGQGTQVTVSS | low polyreactivity |
| QVQLVETGGGLVQAGGSLRLSCAASGRTLIGNAMGWYRQAPGKERELVAAISFRGTRTYYADSVKGRFTISRDNAKNTFYLQMNSLKPEDTAVYYCNVYTRDRGYDYWGQGTQVTVSS | high polyreactivity |
| QVQLVESGGGLVQAGGSLRLSCAASGRTFGYYAMGWYRQAPGKERELVAAISWSGGRTYYADSVKGRFTISRDNAKNTVYLQMNSLKPEDTAVYYCAAQTAGFWYDYWGQGTQVTVSS | high polyreactivity |
| QVQLVESGGGLLLAGGSLRLSCAASGYTFVYNAMGWYRHAPGKEREFVAAITWSGTSTRYADSVKGRFTISRDNAKNNVYLQMKSLKPEDTAVYYCAARRRSAQSGSYNHWGQGTQVTVSS | high polyreactivity |
| QVQLVESGGGLVQAGGSLRLSCAASGFTFYIYAMGWYRQAPGKERELVAGIDYSGGSTYYADSVKGRFTISRDNAKNTVYLQMNSLKPEDTAVYYCARYGPYQSSYHYDYWGQGTQVTVSS | high polyreactivity |
| QVQLVESGGGLVQAGGSLRLSCAASGFTIWDYAMGWYRQAPGKERELVAAISWSGGSTYYADSVKGRFTISRDNAKNTVYLQMNSLKPEDTAVYYCNAVHYSHHGYDYWGQGTQVTVSS | low polyreactivity |
| QVQLVESGGGLVQAGGSLRLSCAASGRTFLLYAMGWYRQAPGKERELVAAITSGGGRTYYADSVKGRFTISRDNAKNTVYLQMNSLKPEDTAVYYCAATRPATYAAYDYWGQGTQVTVSS | high polyreactivity |
| QVQLVESGGGLVQAGGSLRLSCAASGSNFAYNAMGWYRQAPGKERELVAGITTSGSRTYYADSVKGRFTISRDNAKNTVYLQMNSLKPEDTAVYYCAADPYFYPIYDYWGQGTQVTVSS | low polyreactivity |
| QVQLVESGGGLVQAGGSLRLSCAASGFTFPLYAMGWYRQAPGKETELVATISSSGSTYYADSVKGRFTISRDNAKNTVYLQMNSLKPEDTAVYYCIAAIQSYEGSGRYFRFDYWGQGTQVTVSS | low polyreactivity |
| QVQLVESGGGLVQAGGSLRLSCAASGFIFGSIVMGWYRQAPGKERELVAAISKRGGTTYYADSVKGRFTISRDNAKNPVYLQMNSLKPEDTAVYYCAVEWCFRRNGRMDYWGQGTQVTVSS | high polyreactivity |
| QVQLVESGGGLVQAGGSLRLSCAASGSTFAYYAMGWYRQAPGKERELVAAINYRATRTYYADSVKGRFTISRDNAKNTVYLQMNSLKPEDTAVYYCAAVSPNTAYDYWGQGTQVTVSS | high polyreactivity |
| QVQLVESGGGLVQAGGSLRLSCAASGSISGINAMGWYRQAPGKERELVAAISRRAGSTYYADSVKGRFTISRDNAKNTVYLQMNSLKPEDTAVYYCAAENFYPYTYYASDYWGQGTQVTVSS | high polyreactivity |
| QVQLVESGGGLVQAGGSLRLSCAASGFTFGSNAMGWYRQAPGKEREFVATITKSGGRTYYADSVKGRFTISRDNAKNTVYFQMNSLKPEDTAVYYCAVALSYRTYRKDDYWGQGTQVTVSS | high polyreactivity |
| QVQLVESGGGLVQAGGSHRLSCAASGRTFYRYVMGWYRQAPGKERELVAAIRSSGTSTYYADSVKGRFTISRDNAKNTVYLQINSLKPEDTAVNYCARDSYRGYVYSLDYWGQGNQVTVSS | high polyreactivity |
| QVQLVESGGGLVQAGGSLRLSCAASGSTFDVNAMGWYRQAPGKERELVAVITSGGSTNYADSVKGRFTISRDNAKNTVYLQMNRLKPEDTAVYYCAKDSRTLYDYWGQGTQVTVSS | low polyreactivity |
| QVQLVESGGGLVQAGGSLRLSCAASGITLYGYTMGWYRQAPGKERELVAGISRGGSTYYADSVKGRFTISRYNEKNTVFLQLNSLKPEDSEVYYCAAAGWYRGDYWGQGTQVTVSS | high polyreactivity |
| QVQLVESGGRLVQAGGSLRLSCAASAITFGHNAMGWYRQAPGKGRELVATISTRGGSTYADSVKGRFTISRDNAKNTVYLQMNSLKPEDTAVYYCAAPAGGYVPYFYEFDYWGQGTQVTVSS | low polyreactivity |
| QVQLEESGGGLVQAGGSLRLICAAYGIIFYIYTMGWYRQEPVKERELVAAINPGGSRYYADSVKGRFTISRDNAKNTVYLQMNSLKPEDTAVYYCNKLSYGRSGYWGQGTEVTVSS | high polyreactivity |
| QVQLVESGGGVVQAGGSLRISCAASRLIFRRNAMGWYGQAPGKERELVAAISRTGGSTYDADSVKGRFTISRDNAKNPVYLQRNSLIPEDTAVYYCATDTRDYDYTDEYWGHGTQVTVSS | low polyreactivity |
| QVQLVESGGGLVQAGGSLRLSCAASGLTFWRYTMGWYRQAPGKERELVAVITYRGGSTYYADSVKGRFTISRDNAKNTVYLQMNSLKPEDTAVYYCAAGRRTYGLTYDYWGQGTQVTVSS | high polyreactivity |

| Sequence | polyreactivity (PSR sort gate) |
| --- | --- |
| QVQLVESGGGLVQAGGSLRLSCAASGRIFGLYAMGWYRQAPGKERELVAAITSSTGSTYYADSVKGRFTISRDNAKNTVYLQMNSLKPEDTAVYYCAADLYSPSIYGYIYYTWLDYWGQGTQVTVSS | high polyreactivity |
| QVQLVESGVGLVQAGGSLRLSCAASGITFSSYAMGWYRQAPGKERELVAAITRSGSTTYADSVKGRFTISRDNAKNTVYLQMNSLKPEDTAVYYCAVDYYYLTGGVDYWGQGTQVTVSS | low polyreactivity |
| QVQLVESGGGLVQAGGSLRLSCAASGSTIDGYAMGWYRQAPGKEREFVAAISFSSASTYYADSVKGRFTISRDNAKNTVYLQMNSLKPEDTAVYYCNADFFDSGGSIEYDSWGQGSQVTVSS | low polyreactivity |
| QVQLVESGGGLVQAGGSLRLSCAASGIIFTKYAMGWYRQAPGKERELVAAITASGGSTYYADSVKGRFTISRDNAKNTVYLQMNSLKPEDTAVYYCAARSQSRYGYWGQGTQVTVSS | high polyreactivity |
| QVQLVESGGGLVQAGGSLRLSCAASGSTFGRNAMGWYRQAPGKERELVAAITASGGTTYYADSVKGRFTISRDNAKNTVYLQMNSLKPEETAVYYCARAGHFSFKYDYWGQGTQVTVSS | low polyreactivity |
| QVQLVESGGGLVQAGCSLRLSCAASGSIFPANAMGWYRQAPGKEWEFVAAINWSTGTTYNADSVKGRFTISRDNAKNTVYLQMTSLKPEDTAFYHCAAGDWYSGNTTHFYYWGQGTQVTVSS | low polyreactivity |
| QVQLVESGGGLVQAGGSIRLSCAASGRIFYTYAMGWYRPAPGKERELVAAISSRTGSTYYADSVKGRFTISRDNAKNTVYLQMNSLKPEDTAVYYCNAYRLRYGYDYWGQGTQVTVSS | high polyreactivity |
| QVQLVESGGGLVQAGGSLRLSCAASGSTFSFNAMGWYRQAPGKERELVAAISYSDSTTYYADSVKGRFTISRDNAKNTVYLQMNSLKPEDTAVYYCAAETGPYYRFGGDYWGQGTQVTVSS | high polyreactivity |
| QVQLVESGGGLVQAGGSLRLSCAASGRIFAVYAMGWYRQAPGKEREFVAAISYSGGITYYADSVKGRFTISRDTAKNTVYLQMNSLKPEDTAVYYCNAYYYFWGQGTQVTVSS | low polyreactivity |
| QVQLVESGGGLVQAGGSLRLSCAASGSIIGDNTKGWYRQAPGKERELVAAISWRGGSTYYADSVKGRFTISLDNAKNTVFLQMNSLKPEDTAVYYCIGGPGGYDYWGQGSQVTVSS | low polyreactivity |
| QVQLVESGVGLVQAGGSLRLSCAASGFLIRYYAMGWYRQAPGKERELVASIDWSGGNTYYADSVKGRFTSSRDKAKITVYFQMNSLKPEDTAVYSCNRRGMDWGQGTQVNVSS | low polyreactivity |
| QVQLVESGGGLVQAGGSLRLSCAASGSTFRYYAMGWYRQAPGKERELVAVISTSGNTYYADSVKGRFSISRDNAKITVYVQMNSLQPEETAVYYCAARGVGGQISQEYDYWGQGTQVTVSS | low polyreactivity |
| QVQLVESGGGLVQAGGSLRLSCAASGIIFSFYAMGWYRQAPGKERELVAAISRSGGSTYYADSVKGRFTISRDNEKNSVYLQMNSLKPEDTAVYYCNADNGASYYYRRYDSLGQGTQVTVSS | high polyreactivity |
| QVQLVESGGGLVQAGGSLRLSCAASGRTFYRNAMGWYRQATGKERELVAAISRGDSTYYADSVKGRFTISRDNAKKTVYLQMNSLKPEDTAVYYCAKRARRIGDVNMGSWGQGTQVTVSS | low polyreactivity |
| QVQLVESRGGLVQAGGSLRLSCAASGITSRFYVMGWYRKAPGKERELVAAISTRGTSTYYADSVKGRFTLSRDNAKNTVYLQMNSLKPEDTAVYYCAAVGGYPYQYPYGSWGQGTQVTVSS | high polyreactivity |
| QVQLVESGGGLVQAGGSLRLSCAASGRTFYYYTMGWYRQAPGKERELVAAISVSGGSTYYADSVKGRFTISRDNAKNTVYLQMNSLKPEDTAVYYCAAGDGWGRRYYWGQGTQVTVSS | high polyreactivity |
| QVQLVESGGGLVQAGGSLRLSCAASGRILNINAMGWYRQAPGQERELVAAITWRGGRTFYADSVKGRFTISRDNAKNTVYLQMNSLKPEDTAVYYCAASSNTWYPTGYYWGQGTQVTVSS | high polyreactivity |
| QVQLVESGAGLVQARGSLRLSCAASGFTISYYAMGWYRQAPVKERELVAAITSGGSTYYADYVKGRFTISRDNAKNTVYVQMNSLKPEDTAVYYCIADGWYYPTDDYWGQGSQVTVSS | low polyreactivity |
| QVQLVESGGGLVQAGGSLRFSCAASGSTFTTNVMGWYRQAPGKERELVAAISHRGGSTYYADSVKGRFTMSRDNAKNTVYLQMNSLKPEDTAVYYCAAPGWERYGYWGQGTQVTVSS | low polyreactivity |
| QVQLVESGGGLVQAGGSLRLSCAASGITFRSYAMGWYRQAPGKERELVAAISQSGTSTYYADSVKGRFTISRDNAKNTVYLQMNSLKPEDTAVYYCAASYYLKLRRRRYDYWGQGTQVTVSS | high polyreactivity |
| QVQLVESGRGLVQAGGTLRLSCAASGSIFGYYAMGWYRQAPGKERELVASISGSGGTTYYADSVKGRFTISRDNAKNTVYLQMNSLNPEDTAVYYCAARRSIYGYPFVTSRRGYWGQGTQVTVSS | high polyreactivity |
